Experiment [1] addresses T1, FcγRIIIa (Homo sapiens, UniProt P08637).
T1 construct: made in house; host or cells: HEK-293
The experiment in a line: Surface plasmon resonance (SPR) analysis of binding avidity of glycoengineered Rituximab IgG1. The settings on record: for improvement in binding avidity to FcγRIIIa compared to the commercial sample of rituximab / Rmax / Kd / ka / kd: SPR; for Rmax / Kd / ka / kd: BIACORE T200, 25° C.; for Kd / ka / kd: single cycle kinetic, 1:1 Langmuir model; for Fold: binding avidity relative to commercial Rituximab. The procedure: All the SPR experiments were performed with the single cycle kinetic method by BIACORE T200 at 25° C. using HBS-EP (10 mM HEPES pH7.4, 0.15M NaCl, 3mMEDTA, 0.005% surfactant P20) as running buffer. FcγRIIIa was transfected into HEK-293 cells to express the complex-type glycosylated recombinant protein as analyte. For the analysis of Rituximabs binding to FcγRIIIa receptor, antihuman Fab antibodies in human Fab capture kit (GE Healthcare) were immobilized onto both the reference and active channels of CM5 sensor chip, and then Rituximabs were captured on the active channel for interacting with the serial dilutions of FcγRIIIa analyte (2.5, 5, 10, 20, 40 nM for 2,6-FluoSCT and 2,6-SCT; 8, 24, 72, 216, 648 nM for the commercial Rituximabs) at 30 μl/min for association of 240 seconds followed by dissociation time of 420 seconds. Rituximab data were processed with double referencing for background subtraction. Data of Rituximabs was fitted to 1:1 Langmuir binding model in BiaEvaluation software (GE Healthcare) to obtain the kinetic/affinity constants (Table 4). Analyzed antibodies were captured by the Human Fab capture kit and detected with the single cycle kinetic method.
(In SPR one partner is held on a chip, and binding of the other changes the refractive index at the surface.)

Experiment [2] has as its target T2, sialidase from Vibrio cholerae (Vibrio cholerae serotype O1, UniProt P0C6E9).
T2 construct: purchased Sigma Aldrich 11080725001
It is filed as biochemical.

Experiment [3] concerns sialidase from Clostridium perfringens. Type of experiment: biochemical. The settings on record: C. perfringens sialidase, substrate Neu5Ac-α2,6-GalβpNP 0.6 mM, inhibitor 0-20 mM (FIG. 1B).
The target in experiment [4] is T2, sialidase from Vibrio cholerae. It is filed as biochemical. The settings on record: pH 5.5.
The subject of experiment [5] is sialidase from Clostridium perfringens. Type of experiment: biochemical. The following applies: C. perfringens sialidase, 37° C., pH 5.0, substrate 0-20 mM, β-galactosidase, A405 nm (FIG. 1A).

T1 sequence (P08637 17-254): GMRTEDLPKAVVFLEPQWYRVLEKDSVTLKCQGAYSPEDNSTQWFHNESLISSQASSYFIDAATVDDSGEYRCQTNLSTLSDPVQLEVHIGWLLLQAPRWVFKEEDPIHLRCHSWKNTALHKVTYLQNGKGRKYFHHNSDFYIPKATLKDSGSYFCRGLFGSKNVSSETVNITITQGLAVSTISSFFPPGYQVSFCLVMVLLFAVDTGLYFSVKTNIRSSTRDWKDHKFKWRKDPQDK
T2 sequence (P0C6E9 25-781): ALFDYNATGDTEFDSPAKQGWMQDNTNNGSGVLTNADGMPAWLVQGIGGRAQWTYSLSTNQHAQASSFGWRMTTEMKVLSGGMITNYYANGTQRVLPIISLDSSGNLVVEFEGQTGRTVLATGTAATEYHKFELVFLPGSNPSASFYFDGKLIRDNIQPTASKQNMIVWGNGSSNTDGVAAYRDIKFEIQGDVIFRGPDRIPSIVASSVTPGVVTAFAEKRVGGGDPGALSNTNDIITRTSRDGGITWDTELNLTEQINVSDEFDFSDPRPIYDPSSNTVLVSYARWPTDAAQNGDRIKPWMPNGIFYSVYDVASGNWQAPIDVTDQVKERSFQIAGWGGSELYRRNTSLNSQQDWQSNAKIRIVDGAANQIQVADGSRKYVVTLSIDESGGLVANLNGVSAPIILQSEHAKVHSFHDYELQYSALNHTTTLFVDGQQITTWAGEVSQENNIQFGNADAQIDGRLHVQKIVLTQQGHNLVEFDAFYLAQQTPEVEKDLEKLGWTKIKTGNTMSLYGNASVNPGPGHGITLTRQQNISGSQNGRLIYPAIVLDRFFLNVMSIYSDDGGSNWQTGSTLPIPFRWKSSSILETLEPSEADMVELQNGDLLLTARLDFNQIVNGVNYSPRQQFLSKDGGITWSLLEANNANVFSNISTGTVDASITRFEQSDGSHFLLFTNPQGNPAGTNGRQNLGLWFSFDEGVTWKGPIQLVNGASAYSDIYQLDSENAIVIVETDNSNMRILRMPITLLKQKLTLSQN

As to “2,6-SCT: parent nonfluorinated homogeneous rituximab glycoform (G2S2), α2,6-sialylated biantennary N-glycan without core fucose”, in experiment [1], the “improvement in binding avidity to FcγRIIIa compared to the commercial sample of rituximab” value was 39.9 fold, the Rmax came out at 60.64 RU, the Kd stood at 7.67 nM and the ka was determined as 268000 M⁻¹ s⁻¹. Also, in experiment [1], the kd was 0.002059 s⁻¹ and the Fold is on record as 39.9-fold.
Consider “p-Nitrophenyl [methyl 5-acetamido-3,5-dideoxy-3-fluoro-D-erythro-α-L-manno-non-2-ulopyranosonate]-(2→6)-β-D-galactopyranoside [Compound 2]”, for which the “inhibition of the hydrolysis of 1” value in experiment [2] and in experiment [3] was “did not significantly inhibit” in each case. The “hydrolytic activity of the sialidase toward the substrate” value in experiment [4] and in experiment [5] was “inactive” throughout.
Take `CC(=O)N[C@H]1[C@H]([C@H](O)[C@H](O)CO)OC(C(=O)O)=C[C@@H]1O` [DANA, 2-deoxy-2,3-didehydro-N-acetylneuraminic acid]: the “inhibition of the hydrolysis of 1” value in experiment [2] and in experiment [3] was “inhibit the hydrolysis of 1” each time.
For the compound `CC(=O)N[C@H]1[C@H]([C@H](O)[C@H](O)CO)OC(OC[C@H]2O[C@@H](Oc3ccc([N+](=O)[O-])cc3)[C@H](O)[C@@H](O)[C@H]2O)(C(=O)O)C[C@@H]1O` (stereo partly drawn) [Compound 1, p-Nitrophenyl [5-acetamido-5-deoxy-D-glycero-α-D-galacto-non-2-ulopyranosylonate]-(2→6)-β-D-galactopyranoside], the “hydrolytic activity of the sialidase toward the substrate” value in experiment [4] is recorded as “expected hydrolytic activity”.
For “Rituximab: commercial sample of rituximab (Rituxan, Roche; major glycoforms: G1F1, G0F1, G2F1)”, in experiment [1], the Rmax came to 32.33 RU, the Kd is 306 nM, the ka was determined as 231000 M⁻¹ s⁻¹ and the kd worked out at 0.07054 s⁻¹. Besides, the Fold in experiment [1] is on record as 1-fold.
As for “2,6-F^axSCT: homogeneous rituximab IgG1 glycoform without core fucose bearing the 3F^ax-Neu5Ac-terminated α2,6-sialylated biantennary N-glycan”, in experiment [1], the “improvement in binding avidity to FcγRIIIa compared to the commercial sample of rituximab” value was 37.4 fold, the Rmax stood at 71.28 RU, the Kd stood at 8.18 nM and the ka stood at 244000 M⁻¹ s⁻¹. In experiment [1], the kd was determined as 0.001996 s⁻¹ and the Fold was 37.4-fold.
